Measured values: PMC6193675 (PLoS ONE, 2018)

Molecular target: yeast-displayed unmodified gp140 from HIV strain YU2, fused at its C-terminal to Aga2p (HIV-1 group M subtype B, isolate YU-2, UniProt P35961, strain)
Assay: flow cytometry on cells; yeast cells displaying YU2 Env-Aga2p fusions incubated with 100 nM precursor antibody at 4°C for 16-18 h in PBI (PBS pH 7.2, 1% BSA, protease inhibitors); fluorescent secondary antibody
Conditions: one partner purified

Binder	binding result
reconstructed predicted precursor form of antibody VRC01 (antibody, V domains shown, V(D)J segments with the highest identity to mature VRC01 (IgBLAST), mature HCDR3 kept; Detected with anti-human secondary antibodies; also called precursor for antibody VRC01; VRC01 precursor; source: HEK293T, transfected, purified) VH: not shown VL: EIVLTQSPATLSLSPGERATLSCRASQSVSSYLAWYQQKPGQAPRLLIYDASNRATGIPARFSGSGSGTDFTLTISSLEPEDFAVYYCQQRSNWPYTFGQGTKLEIK	no binding (tested: 100 nM)
reconstructed predicted precursor form of antibody 447-52D (antibody, V domains shown, V(D)J segments with the highest identity to mature 447-52D (IgBLAST), mature HCDR3 kept; Detected with anti-human secondary antibodies; also called precursor for antibody 447-52D; 447-52D precursor; source: HEK293T, transfected, purified) VH: not shown VL: QSVLTQPPSVSAAPGQKVTISCSGSSSNIGNNYVSWYQQLPGTAPKLLIYDNNKRPSGIPDRFSGSKSGTSATLGITGLQTGDEADYYCGTWDSSLSAGWVFGGGTKLTVL	no binding (tested: 100 nM)
